Source: patent EP2954934A1 (3B Pharmaceuticals GmbH, dated 2015)

What was measured:
[1] = target: human neurotensin receptor 1 (NTR1) prepared from CHO cells recombinantly expressing the human receptor (human) (UniProt P30989); assay: radioligand displacement, 125I-(Tyr3-neurotensin) on human NTR1 from CHO cells
[2] = target: NTR1 on HT29 or NTR1-expressing HEK293 cells (UniProt P30989); assay: cell-based or functional assay
NTR1 on HT29 or NTR1-expressing HEK293 cells, sequence (P30989 whole entry): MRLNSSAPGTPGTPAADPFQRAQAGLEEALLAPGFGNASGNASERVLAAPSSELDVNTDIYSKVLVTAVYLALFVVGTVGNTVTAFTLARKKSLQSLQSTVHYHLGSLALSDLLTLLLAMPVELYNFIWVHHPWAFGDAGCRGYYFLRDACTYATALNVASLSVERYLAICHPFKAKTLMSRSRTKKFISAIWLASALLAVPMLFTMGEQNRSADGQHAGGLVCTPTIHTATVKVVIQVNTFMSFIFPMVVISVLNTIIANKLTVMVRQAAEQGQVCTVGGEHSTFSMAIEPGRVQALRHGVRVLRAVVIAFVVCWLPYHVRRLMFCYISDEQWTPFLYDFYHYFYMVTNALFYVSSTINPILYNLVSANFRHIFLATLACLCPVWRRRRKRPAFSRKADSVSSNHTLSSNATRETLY

human neurotensin receptor 1 (NTR1) prepared from CHO cells recombinantly expressing the human receptor (human), sequence (P30989 whole entry): as above

Row | Substance | IC50 [1] | Agonistic Effect EC50 [nM] (functional Ca2+ mobilisation assay) [2] | Antagonistic Effect IC50 [nM] (functional Ca2+ mobilisation assay) [2]
1 | 1206-Glutar-Ttds3-Asn-Ala-Val-Pro-Asn-Leu-Arg-Gly-Asp-Leu-Gln-Val-Leu-Ala-Gln-Lys-Val-Ala-Arg-Thr-GA (peptide) | 0.0099 µM | > 50000 nM | 38 nM
2 | 1206-Glutar-Ttds-Lys(1206-Glutar-Ttds)-Ttds-Asn-Ala-Val-Pro-Asn-Leu-Arg-Gly-Asp-Leu-Gln-Val-Leu-Ala- (peptide) | 0.0075 µM | > 50000 nM | 12 nM
3 | 1206-Glutar-Ttds-Lys(DOTA)-Ttds-GABA-Asn-Ala-Val-Pro-Asn-Leu-Arg-Gly-Asp-Leu-Gln-Val-Leu-Ala-Gln-Lys (peptide) | 0.01 µM | > 50000 nM | 18 nM
